Test results reported in patent US20040005324A1.

Biological target: purified RSV F glycoprotein (respiratory syncytial virus)
Assay: ELISA on purified F glycoprotein, control Fab
Conditions: scale: reciprocal dilution

purified RSV F glycoprotein (respiratory syncytial virus), sequence (P12568 26-109, chain 1 of 2): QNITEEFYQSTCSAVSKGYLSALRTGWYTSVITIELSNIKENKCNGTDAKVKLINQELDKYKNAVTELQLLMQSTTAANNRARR
purified RSV F glycoprotein (respiratory syncytial virus), sequence (P12568 137-574, chain 2 of 2): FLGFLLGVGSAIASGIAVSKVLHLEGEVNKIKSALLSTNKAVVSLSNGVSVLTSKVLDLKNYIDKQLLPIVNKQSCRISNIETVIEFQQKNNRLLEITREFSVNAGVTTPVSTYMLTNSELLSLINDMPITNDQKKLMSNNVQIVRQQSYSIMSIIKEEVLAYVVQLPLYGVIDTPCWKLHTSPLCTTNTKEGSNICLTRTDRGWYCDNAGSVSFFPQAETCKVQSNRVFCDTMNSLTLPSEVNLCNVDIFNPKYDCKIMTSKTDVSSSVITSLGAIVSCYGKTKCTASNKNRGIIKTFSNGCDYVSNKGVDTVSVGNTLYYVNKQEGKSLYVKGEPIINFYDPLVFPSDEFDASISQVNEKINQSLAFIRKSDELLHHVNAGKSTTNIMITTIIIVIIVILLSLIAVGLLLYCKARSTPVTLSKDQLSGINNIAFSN

hepatitis B Fab
ELISA titer: 2
